Data reported in patent US20230030032A1 (AGGAMIN, published 2023).
Each block holds one binder with its values, some of them ahead of it.

How the values were obtained:
[1] = molecular target: T1, endogenous sFlt-1 in pooled serum of pre-eclampsia patients (human, UniProt P17948-2 27-687, limits assumed); assay: 0.1 ml column, 1 mg antibody/ml beads, pooled serum of pre-eclampsia patients
T1 construct: also called sVEGFR1; soluble Flt-1 receptor

purified human Bmp9 = molecular target: T2, purified human Bmp9 (human, UniProt Q9UK05 320-429, limits assumed); assay: sandwich ELISA: cENG10 coated at 4 ug/mL, serial dilutions of Bmp9 alone, bound Bmp9 detected with biotinylated anti-Bmp9 antibody and an HRP conjugate
T2 construct: also called Bone Morphogenetic Protein 9
T2 sequence (looked up): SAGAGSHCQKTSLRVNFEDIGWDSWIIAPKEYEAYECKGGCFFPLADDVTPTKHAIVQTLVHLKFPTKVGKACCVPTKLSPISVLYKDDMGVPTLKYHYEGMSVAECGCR
Method: (§1) For the ELISA experiment shown, cENG10 antibody was coated onto microplates and incubated with the analyte (a preformed Bmp9/sEng complex, Bmp9 alone, or sEng alone). Bound Bmp9 was detected using a biotinylated anti-Bmp9 antibody and a secondary, HRP-conjugated antibody, allowing for colorimetric detection of cENG10 binding to the Bmp9/sEng complex.
(§2) To test whether or not antibody cENG10 blocks binding of sEng and its ligands was assessed using a sandwich ELISA. To that end, purified human Bmp9 and sEng were mixed at equimolar ratio in PBS (final total concentration 1 μM), incubated for 30 min and serially diluted (in 1% BSA) to 0.02 to 20 nM. Control solutions containing only Bmp9 or sEng were also prepared. Antibody cENG10 (4 μg/mL) was coated onto microplate wells. After a washing step, the wells were blocked with 1% BSA. Serial dilutions of either the preformed Bmp9-sEng complex, sEng alone, or Bmp9 alone were added and the plates incubated for 90 min. After another wash step, bound Bmp9 was detected using a biotinylated anti-Bmp9 antibody and a secondary, HRP-conjugated antibody, allowing for colorimetric detection of cENG10 binding to the Bmp9/sEng complex.

[2] = molecular target: T3, soluble Endoglin (sEng), recombinant, as spiked or purified protein (human, UniProt P17813 26-586, limits assumed); assay: sandwich ELISA: cENG10 coated at 4 ug/mL, serial dilutions of preformed equimolar Bmp9/sEng complex, bound Bmp9 detected with biotinylated anti-Bmp9 antibody and an HRP conjugate
T3 construct: sEng applied to columns (80 or 60 ng/ml), used in SEC and coated in ELISA; construct not specified there; also called spiked sEng
T3 sequence (looked up): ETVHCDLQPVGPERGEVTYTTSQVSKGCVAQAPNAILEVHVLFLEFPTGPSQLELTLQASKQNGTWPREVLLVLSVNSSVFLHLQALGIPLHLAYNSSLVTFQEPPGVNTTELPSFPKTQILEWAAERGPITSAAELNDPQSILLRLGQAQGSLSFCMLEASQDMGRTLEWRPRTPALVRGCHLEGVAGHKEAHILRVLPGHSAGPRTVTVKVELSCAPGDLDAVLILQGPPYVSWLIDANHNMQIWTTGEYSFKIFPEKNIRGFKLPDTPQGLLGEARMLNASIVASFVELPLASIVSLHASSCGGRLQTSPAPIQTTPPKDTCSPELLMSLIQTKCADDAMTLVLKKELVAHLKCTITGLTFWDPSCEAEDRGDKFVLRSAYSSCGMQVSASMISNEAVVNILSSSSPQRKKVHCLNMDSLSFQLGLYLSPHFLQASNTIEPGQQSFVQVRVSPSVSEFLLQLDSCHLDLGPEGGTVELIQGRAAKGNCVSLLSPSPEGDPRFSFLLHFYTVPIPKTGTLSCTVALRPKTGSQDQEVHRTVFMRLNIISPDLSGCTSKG
Method: as §1, §2

[3] = molecular target: T4, recombinant human (rh) Endoglin ectodomain (residues 1-586) containing C-terminal 6xHis tag (human, UniProt P17813 26-586); assay: BLI (Octet QK), purified MAb on Protein-G biosensor, sEng 1-586 6xHis 50 nM in solution
T4 construct: range 1-586; Purified from HEK-293 cells; the stated range 1-586 includes the signal peptide; also called purified sEng antigen; sEng
T4 sequence: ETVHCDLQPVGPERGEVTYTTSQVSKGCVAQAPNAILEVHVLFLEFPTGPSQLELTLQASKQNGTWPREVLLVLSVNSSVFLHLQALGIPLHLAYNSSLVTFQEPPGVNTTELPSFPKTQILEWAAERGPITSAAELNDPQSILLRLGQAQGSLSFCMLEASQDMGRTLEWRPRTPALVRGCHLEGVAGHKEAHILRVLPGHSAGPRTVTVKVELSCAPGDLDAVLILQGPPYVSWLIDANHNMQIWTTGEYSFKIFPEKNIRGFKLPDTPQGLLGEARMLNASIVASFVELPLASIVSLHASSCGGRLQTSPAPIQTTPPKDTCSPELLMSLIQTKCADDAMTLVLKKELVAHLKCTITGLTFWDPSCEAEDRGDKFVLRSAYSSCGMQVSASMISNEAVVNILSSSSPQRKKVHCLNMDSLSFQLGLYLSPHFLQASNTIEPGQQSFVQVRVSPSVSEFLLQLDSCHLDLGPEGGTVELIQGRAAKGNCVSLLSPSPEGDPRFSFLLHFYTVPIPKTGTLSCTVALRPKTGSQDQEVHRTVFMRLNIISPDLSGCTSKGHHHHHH
Method: Materials: Kinetics buffer—PBS solution containing 0.1% BSA and 0.05% Tween-20. Anti-sEng antibodies were purified from ascites of mice injected with hybridoma cells by Protein-G chromatography and buffer exchanged into PBS. For each run, 22 ug/ml (or 150 nM) of each antibody was loaded onto the Protein-G biosensor tip. Purified sEng antigen recombinant human (rh) Endoglin ectodomain (residues 1-586) containing C-terminal 6×His tag was purified from HEK-293 cells by metal affinity chromatography followed by size-exclusion chromatography pre-equilibrated in PBS. For each run, 3 ug/ml (or 50 nM) of sEng was used for association to MAbs bound to Protein-G biosensor tips. Protein-G Biosensor tips were purchased from the instrument supplier.

[4] = molecular target: T5, recombinant human (rh) Endoglin ectodomain (residues 1-586) fused with human IgG1 Fc (human, UniProt P17813 26-586); assay: BLI (Octet QK), MAb from hybridoma supernatant captured on anti-mouse IgG biosensor, sEng-Fc 170 nM in solution
T5 construct: range 1-586; The stated range 1-586 includes the signal peptide, which would be absent from the secreted protein; also called sEng-Fc; sEng/Fc fusion protein; not shown: human IgG1 Fc
T5 sequence (looked up): T3 sequence (looked up)
Method: Materials: Kinetics buffer—PBS solution containing 0.1% BSA and 0.05% Tween-20 was used as the kinetics buffer. Test samples—culture supernatants from top 21 hybridoma clones with the strongest signals for binding to the sEng-Fc antigen as determined by ELISA. sEng antigen—recombinant human (rh) Endoglin ectodomain (residues 1-586) fused with human IgG1 Fc, diluted to 170 nM (30 ug/ml) with kinetics buffer. Biosensors—streptavidin biosensors, preloaded with biotinylated sheep anti-mouse IgG.
Binding affinities were determined using the ForteBio label-free Octet QK BLI system using the following protocol: [0237] i. Condition: Immerse biosensor tips in 200 uL of kinetics buffer for >10 min. [0238] ii. Baseline 1: Immerse biosensors in fresh culture medium for 1 min. [0239] iii. Load: Immerse biosensors in culture supernatant samples containing MAbs for 3 min. [0240] iv. Baseline: Immerse biosensors in kinetics buffer for 1 min. [0241] v. Binding/Association: Incubate biosensors with sEng-Fc Antigen for 5 min. [0242] vi. Dissociation: Incubate biosensors in kinetics buffer for 5 min.
Response signals (nm shifts) were used to calculate Kd values for the different antibodies.

T1 sequence (P17948 other isoform, or with tags, fused parts or gaps limits assumed): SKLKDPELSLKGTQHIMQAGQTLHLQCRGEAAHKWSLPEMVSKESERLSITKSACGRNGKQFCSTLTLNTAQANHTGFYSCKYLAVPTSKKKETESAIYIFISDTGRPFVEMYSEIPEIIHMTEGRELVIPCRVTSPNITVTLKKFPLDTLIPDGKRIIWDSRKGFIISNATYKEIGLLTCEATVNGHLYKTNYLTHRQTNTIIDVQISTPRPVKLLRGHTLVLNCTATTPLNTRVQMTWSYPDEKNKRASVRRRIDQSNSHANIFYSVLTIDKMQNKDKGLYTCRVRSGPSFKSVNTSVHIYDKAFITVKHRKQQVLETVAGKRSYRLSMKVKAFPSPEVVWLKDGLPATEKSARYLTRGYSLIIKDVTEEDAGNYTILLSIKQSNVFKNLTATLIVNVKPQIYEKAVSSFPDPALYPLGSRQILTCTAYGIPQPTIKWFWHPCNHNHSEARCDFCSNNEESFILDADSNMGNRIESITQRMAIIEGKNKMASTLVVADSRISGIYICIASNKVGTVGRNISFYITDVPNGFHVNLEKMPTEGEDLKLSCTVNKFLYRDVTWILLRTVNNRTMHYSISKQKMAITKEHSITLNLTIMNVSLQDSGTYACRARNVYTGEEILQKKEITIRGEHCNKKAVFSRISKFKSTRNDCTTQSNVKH

- binding result [1]: no binding
- binding result (purified human Bmp9): no binding (tested: 20 nM)
- EC50 (read off the curve) [2]: ~3 nM
B1: chimeric anti-sEng antibody cENG10 (antibody, human IgG1, kappa, N297Q, V domains shown)
VH: EVQLEQSGPEVVKPGTSVKISCKTSGYTITEHTLHWIKQNQGKSLEWIGGINFDNGGTTYRQKFKDKATLTVDKSSSTAFMELRSLTSDDSAVYFCARRAYYYGSAFDYWGQGTTLTVSS
VL: ENVLTQSPAIMSASLGEKVTMTCRASSSVNYVYWYQQKSDASPKLWIYYTSNLAPGVPARFSGSGSGNSYSLTISSMEGEDAATYYCQQFISFPYTFGGGTKLEIKR
notes: Murine MAb 210 variable regions on human IgG1 / kappa constant regions; also called αEng; cENG10 (CHO-derived)

- Kd [3]: 2.2 nM
- Kd [4]: 0.61 nM
B2: MAb 210 (antibody, V domains shown)
VH: B1 VH
VL: ENVLTQSPAIMSASLGEKVTMTCRASSSVNYVYWYQQKSDASPKLWIYYTSNLAPGVPARFSGSGSGNSYSLTISSMEGEDAATYYCQQFISFPYTFGGGTKLEIK
notes: Murine monoclonal antibody from hybridoma; also called lead antibody
